Results on 125 sequences are retold here after the supplement of paper PMC9112550, “Optimization of the antimicrobial peptide Bac7 by deep mutational scanning” (BMC Biology, 2022).

The test system of this data set is Escherichia coli TOP10. Nature of the data set: shrunken log2 fold change of peptide-encoding DNA abundance (4.5 h post-induction vs induction); higher = less antimicrobial activity (less host growth inhibition). The following applies: time post-induction: 4.5 h; library: site-saturation at positions 5, 18, 19, 20.
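Also: peptides expressed intracellularly from a pBAD plasmid library in pooled LB shake-flask culture, induced with 0.3% L-arabinose, DNA abundance read by NGS, three biological replicates, DESeq2 with apeglm shrinkage.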

Take RRIRFRPPRLPRPRPRPLWFPRP: the “shrunken log2 fold change” value stood at 0.00985.

For the sequence RRIRSRPPRLPRPRPRPAYMPRP, the “shrunken log2 fold change” value is -0.608.

RRIRLRPPRLPRPRPRPFALPRP: the “shrunken log2 fold change” value was found to be 0.187.

On to RRIRPRPPRLPRPRPRPEVQPRP, for which the “shrunken log2 fold change” value was found to be 0.0715.

As for RRIRARPPRLPRPRPRPSVAPRP, the “shrunken log2 fold change” value amounted to 0.485.

Regarding RRIRFRPPRLPRPRPRPRVIPRP, the “shrunken log2 fold change” value is -0.0914.

In the case of RRIRPRPPRLPRPRPRPQVGPRP, the “shrunken log2 fold change” value was determined as 0.0207.

On to RRIRFRPPRLPRPRPRPAQYPRP, for which the “shrunken log2 fold change” value was -0.574.

In the case of RRIRTRPPRLPRPRPRPCPGPRP, the “shrunken log2 fold change” value is -0.232.

For RRIRMRPPRLPRPRPRPKRDPRP, the “shrunken log2 fold change” value came to 1.15.

Regarding RRIRQRPPRLPRPRPRPNNGPRP, the “shrunken log2 fold change” value is -0.361.

For the sequence RRIRSRPPRLPRPRPRPDGWPRP, the “shrunken log2 fold change” value turned out to be 0.278.

RRIRTRPPRLPRPRPRPRNPPRP: the “shrunken log2 fold change” value came to 0.000872.

Take RRIRARPPRLPRPRPRPGWMPRP: the “shrunken log2 fold change” value was -0.168.

Regarding RRIRYRPPRLPRPRPRPLQPPRP, the “shrunken log2 fold change” value is -0.499.

Take RRIRFRPPRLPRPRPRPPAKPRP: the “shrunken log2 fold change” value was found to be 0.633.

On to RRIRTRPPRLPRPRPRPPGLPRP, for which the “shrunken log2 fold change” value came to 1.11.

As to RRIRTRPPRLPRPRPRPRWAPRP, the “shrunken log2 fold change” value is 0.541.

Turning to RRIRQRPPRLPRPRPRPDNQPRP, the “shrunken log2 fold change” value is -0.037.

For the sequence RRIRTRPPRLPRPRPRPELEPRP, the “shrunken log2 fold change” value worked out at 0.0188.

With RRIRFRPPRLPRPRPRPEFWPRP, the “shrunken log2 fold change” value is 0.264.

With RRIRMRPPRLPRPRPRPLCDPRP, the “shrunken log2 fold change” value came out at 1.11.

For RRIRWRPPRLPRPRPRPEGDPRP, the “shrunken log2 fold change” value came out at 0.166.

In the case of RRIRLRPPRLPRPRPRPFMLPRP, the “shrunken log2 fold change” value was -0.356.

For RRIRQRPPRLPRPRPRPVRIPRP, the “shrunken log2 fold change” value was -0.0391.

In the case of RRIRMRPPRLPRPRPRPDYVPRP, the “shrunken log2 fold change” value is -0.183.

Turning to RRIRTRPPRLPRPRPRPQHTPRP, the “shrunken log2 fold change” value is -0.733.

Regarding RRIRLRPPRLPRPRPRPMLWPRP, the “shrunken log2 fold change” value worked out at 0.00318.

Regarding RRIRKRPPRLPRPRPRPKHNPRP, the “shrunken log2 fold change” value was 0.0641.

In the case of RRIRSRPPRLPRPRPRPNIIPRP, the “shrunken log2 fold change” value was -0.774.

Consider RRIRLRPPRLPRPRPRPLLRPRP, for which the “shrunken log2 fold change” value worked out at 0.196.

On to RRIRFRPPRLPRPRPRPYVMPRP, for which the “shrunken log2 fold change” value is -0.651.

On to RRIRQRPPRLPRPRPRPSLMPRP, for which the “shrunken log2 fold change” value is -0.112.

As for RRIRARPPRLPRPRPRPIMLPRP, the “shrunken log2 fold change” value is -0.43.

Turning to RRIRFRPPRLPRPRPRPFGIPRP, the “shrunken log2 fold change” value was -0.197.

With RRIRCRPPRLPRPRPRPNIEPRP, the “shrunken log2 fold change” value is -0.279.

Turning to RRIRWRPPRLPRPRPRPGKRPRP, the “shrunken log2 fold change” value came to 0.37.

As for RRIRMRPPRLPRPRPRPENGPRP, the “shrunken log2 fold change” value turned out to be 0.0676.

On to RRIRCRPPRLPRPRPRPDQMPRP, for which the “shrunken log2 fold change” value amounted to 0.101.

Consider RRIRKRPPRLPRPRPRPWHHPRP, for which the “shrunken log2 fold change” value is -0.197.

With RRIRHRPPRLPRPRPRPKFVPRP, the “shrunken log2 fold change” value was -0.0479.

Turning to RRIRKRPPRLPRPRPRPSDNPRP, the “shrunken log2 fold change” value came to 0.0936.

RRIRRRPPRLPRPRPRPWYYPRP: the “shrunken log2 fold change” value was -0.293.

Consider RRIRNRPPRLPRPRPRPPPAPRP, for which the “shrunken log2 fold change” value was found to be 1.09.

For RRIRMRPPRLPRPRPRPGFEPRP, the “shrunken log2 fold change” value came out at 0.526.

RRIRDRPPRLPRPRPRPGWPPRP: the “shrunken log2 fold change” value worked out at 0.514.

RRIRPRPPRLPRPRPRPMLRPRP: the “shrunken log2 fold change” value stood at 0.34.

Turning to RRIRGRPPRLPRPRPRPRVLPRP, the “shrunken log2 fold change” value worked out at 0.367.

For RRIRLRPPRLPRPRPRPVRNPRP, the “shrunken log2 fold change” value was found to be 0.0234.

In the case of RRIRWRPPRLPRPRPRPFNNPRP, the “shrunken log2 fold change” value was -0.494.

In the case of RRIRARPPRLPRPRPRPMFEPRP, the “shrunken log2 fold change” value was determined as 0.3.

For the sequence RRIRVRPPRLPRPRPRPQTIPRP, the “shrunken log2 fold change” value was -0.127.

Take RRIRVRPPRLPRPRPRPEIYPRP: the “shrunken log2 fold change” value was -0.348.

As for RRIRFRPPRLPRPRPRPMRIPRP, the “shrunken log2 fold change” value is 0.068.

In the case of RRIRCRPPRLPRPRPRPLWQPRP, the “shrunken log2 fold change” value was -0.147.

As to RRIRTRPPRLPRPRPRPGVWPRP, the “shrunken log2 fold change” value amounted to 0.631.

RRIRRRPPRLPRPRPRPEAQPRP: the “shrunken log2 fold change” value amounted to 0.253.

Turning to RRIRTRPPRLPRPRPRPNPWPRP, the “shrunken log2 fold change” value turned out to be 0.0694.

As to RRIRLRPPRLPRPRPRPGWYPRP, the “shrunken log2 fold change” value was found to be 0.354.

As to RRIRHRPPRLPRPRPRPDTAPRP, the “shrunken log2 fold change” value is 0.0194.

As for RRIRERPPRLPRPRPRPQWIPRP, the “shrunken log2 fold change” value was -0.0767.

Regarding RRIRLRPPRLPRPRPRPRRVPRP, the “shrunken log2 fold change” value was 0.0457.

With RRIRRRPPRLPRPRPRPAKQPRP, the “shrunken log2 fold change” value is 0.136.

As to RRIRFRPPRLPRPRPRPKYTPRP, the “shrunken log2 fold change” value is -0.657.

With RRIRTRPPRLPRPRPRPFEHPRP, the “shrunken log2 fold change” value is -0.32.

For RRIRIRPPRLPRPRPRPIFEPRP, the “shrunken log2 fold change” value is -0.0533.

For RRIRMRPPRLPRPRPRPHQRPRP, the “shrunken log2 fold change” value turned out to be 0.236.

As for RRIRERPPRLPRPRPRPFMTPRP, the “shrunken log2 fold change” value was -0.438.

Turning to RRIRRRPPRLPRPRPRPYFNPRP, the “shrunken log2 fold change” value was -0.2.

On to RRIRNRPPRLPRPRPRPVHSPRP, for which the “shrunken log2 fold change” value was -0.245.

As for RRIRERPPRLPRPRPRPGRKPRP, the “shrunken log2 fold change” value was -0.12.

In the case of RRIRDRPPRLPRPRPRPRCNPRP, the “shrunken log2 fold change” value was -0.0439.

Turning to RRIRIRPPRLPRPRPRPRNMPRP, the “shrunken log2 fold change” value was -0.243.

Take RRIRMRPPRLPRPRPRPPFGPRP: the “shrunken log2 fold change” value was 0.789.

Take RRIRVRPPRLPRPRPRPTAVPRP: the “shrunken log2 fold change” value was 0.327.

With RRIRVRPPRLPRPRPRPSDYPRP, the “shrunken log2 fold change” value was -0.673.

Turning to RRIRPRPPRLPRPRPRPRNNPRP, the “shrunken log2 fold change” value was -0.228.

Take RRIRERPPRLPRPRPRPKNYPRP: the “shrunken log2 fold change” value is -0.463.

RRIRIRPPRLPRPRPRPNVGPRP: the “shrunken log2 fold change” value came out at 0.011.

As for RRIRDRPPRLPRPRPRPVLFPRP, the “shrunken log2 fold change” value is 0.13.

With RRIRQRPPRLPRPRPRPCPRPRP, the “shrunken log2 fold change” value was -0.01.

Take RRIRKRPPRLPRPRPRPNAPPRP: the “shrunken log2 fold change” value is 0.449.

Turning to RRIRIRPPRLPRPRPRPEANPRP, the “shrunken log2 fold change” value was -0.00444.

As to RRIRNRPPRLPRPRPRPDLNPRP, the “shrunken log2 fold change” value turned out to be 0.274.

As to RRIRHRPPRLPRPRPRPDAYPRP, the “shrunken log2 fold change” value amounted to 0.027.

As to RRIRGRPPRLPRPRPRPVWTPRP, the “shrunken log2 fold change” value is 0.674.

Consider RRIRPRPPRLPRPRPRPPYVPRP, for which the “shrunken log2 fold change” value is -0.0964.

For the sequence RRIRTRPPRLPRPRPRPVDKPRP, the “shrunken log2 fold change” value was -0.362.

Take RRIRSRPPRLPRPRPRPFVYPRP: the “shrunken log2 fold change” value was -0.368.

With RRIRPRPPRLPRPRPRPCWPPRP, the “shrunken log2 fold change” value was found to be 0.144.

Turning to RRIRTRPPRLPRPRPRPLMCPRP, the “shrunken log2 fold change” value is -0.151.

With RRIRTRPPRLPRPRPRPQRCPRP, the “shrunken log2 fold change” value worked out at 0.00192.

On to RRIRNRPPRLPRPRPRPYKGPRP, for which the “shrunken log2 fold change” value is -1.13.

Take RRIRRRPPRLPRPRPRPWNTPRP: the “shrunken log2 fold change” value is -0.214.

RRIRRRPPRLPRPRPRPGYIPRP: the “shrunken log2 fold change” value was -0.177.

As for RRIRHRPPRLPRPRPRPSEMPRP, the “shrunken log2 fold change” value is -0.0714.

With RRIRTRPPRLPRPRPRPMITPRP, the “shrunken log2 fold change” value is -0.0731.

In the case of RRIRGRPPRLPRPRPRPPGQPRP, the “shrunken log2 fold change” value was 0.976.

With RRIRTRPPRLPRPRPRPNWKPRP, the “shrunken log2 fold change” value was -0.0427.

Regarding RRIRKRPPRLPRPRPRPCNVPRP, the “shrunken log2 fold change” value is -0.192.

On to RRIRRRPPRLPRPRPRPMCAPRP, for which the “shrunken log2 fold change” value turned out to be 0.193.

Turning to RRIRGRPPRLPRPRPRPDLDPRP, the “shrunken log2 fold change” value is 1.21.

On to RRIRMRPPRLPRPRPRPDRAPRP, for which the “shrunken log2 fold change” value is 0.861.

As to RRIRPRPPRLPRPRPRPTEAPRP, the “shrunken log2 fold change” value was -0.258.

On to RRIRCRPPRLPRPRPRPGPIPRP, for which the “shrunken log2 fold change” value came to 0.367.

In the case of RRIRIRPPRLPRPRPRPDELPRP, the “shrunken log2 fold change” value worked out at 0.0623.

As for RRIRFRPPRLPRPRPRPYYFPRP, the “shrunken log2 fold change” value is -0.706.

RRIRERPPRLPRPRPRPVHDPRP: the “shrunken log2 fold change” value was -0.687.

With RRIRFRPPRLPRPRPRPGSAPRP, the “shrunken log2 fold change” value is 0.182.

In the case of RRIRHRPPRLPRPRPRPTKHPRP, the “shrunken log2 fold change” value was -0.142.

For the sequence RRIRKRPPRLPRPRPRPHKQPRP, the “shrunken log2 fold change” value was found to be 0.164.

For the sequence RRIRLRPPRLPRPRPRPPRMPRP, the “shrunken log2 fold change” value stood at 0.232.

As for RRIRNRPPRLPRPRPRPVDGPRP, the “shrunken log2 fold change” value was -0.175.

In the case of RRIRCRPPRLPRPRPRPYRDPRP, the “shrunken log2 fold change” value was -0.16.

For the sequence RRIRTRPPRLPRPRPRPACIPRP, the “shrunken log2 fold change” value was 0.599.

As for RRIRPRPPRLPRPRPRPTVHPRP, the “shrunken log2 fold change” value is -0.0233.

Regarding RRIRPRPPRLPRPRPRPGNYPRP, the “shrunken log2 fold change” value is -0.36.

On to RRIRYRPPRLPRPRPRPCCTPRP, for which the “shrunken log2 fold change” value was -0.418.

Take RRIRARPPRLPRPRPRPDTQPRP: the “shrunken log2 fold change” value turned out to be 0.374.

Take RRIRLRPPRLPRPRPRPAKDPRP: the “shrunken log2 fold change” value was -0.136.

Turning to RRIRNRPPRLPRPRPRPPILPRP, the “shrunken log2 fold change” value was determined as 0.144.

In the case of RRIRERPPRLPRPRPRPDWHPRP, the “shrunken log2 fold change” value was -0.12.

Take RRIRIRPPRLPRPRPRPPGDPRP: the “shrunken log2 fold change” value was -0.0965.

RRIRMRPPRLPRPRPRPIMNPRP: the “shrunken log2 fold change” value was found to be 0.284.

As to RRIRNRPPRLPRPRPRPRKVPRP, the “shrunken log2 fold change” value was 0.445.
